The text below walks through data of publication PMC10965115.

Where two headings read alike, the source gives them in different places.

What all share (experiment): BLI
In general terms: In BLI a coated tip is dipped into the sample, and binding shifts an interference pattern.

For test [1], the target named is IgG1 LALA RUBY v9 #2 (human).
Test [2] addresses IgG1 mAb (human).
In test [3] the target is IgG1 RUBY v9 #15 (human).
Test [4] has as its target IgG2 mAb (human).
The target of a further test is IgG1 LALA mAb (human).
Test [5] has as its target IgG2 RUBY v9 #16 (human).
Test [6] addresses IgG1 LALA RUBY #10 (human).
Test [7] concerns the target IgG2 mAb (human). The source holds these as a separate data set.
Test [8] deals with IgG1 mAb (human). The source holds these as a separate data set.
Test [9] concerns the target IgG2 RUBY v9 #16 (human). This is another data set of the same source.
The target in test [10] is IgG1 RUBY v9 #15 (human). This is another data set of the same source.

One may read the Kd as the free concentration of one partner at which half of the binding sites on the other are occupied at equilibrium, for simple one-to-one binding. Read a low Kd as a tighter complex. In [1], hFcγRI (from UniProt P12314) (receptor) came in with a Kd of 40 nM.

Broadly, the koff is a measure of how fast the partners let go of each other. A higher koff goes with a short-lived complex. In general, kon refers to the rate constant with which the complex forms. A higher kon goes with fast association. For “hFcγRIIIa 176 V (from UniProt P08637) (receptor)”, in the test with IgG1 mAb (human) [2], the Kd was 50 nM, the koff worked out at 0.03 s⁻¹ and the kon turned out to be 600000 M⁻¹ s⁻¹. In the test with IgG1 RUBY v9 #15 (human) [3], this molecule returned a Kd of 30 nM, a koff of 0.03 s⁻¹ and an on-rate constant (kon) of 1e+06 M⁻¹ s⁻¹.

“hFcγRIIa (from UniProt P12318) (receptor)” displayed a Kd with IgG1 mAb (human) [2] of 300 nM. In other words, the sub-micromolar range.

Take “mFcγRIV (from UniProt A0A0B4J1G0) (receptor)”: the Kd with IgG1 mAb (human) [2] turned out to be 50 nM; with IgG1 RUBY v9 #15 (human) [3] it was 40 nM. The molecule further showed a kon in the test with IgG1 mAb (human) [2] of 400000 M⁻¹ s⁻¹.

“recombinant human FcRn (from UniProt P55899) (receptor)”: the Kd was determined as 600 nM in the test with IgG2 mAb (human) [4]; 500 nM with IgG1 mAb (human) [2]; 500 nM in the test with IgG1 LALA mAb (human); 1000 nM with IgG2 RUBY v9 #16 (human) [5]; 600 nM in [6]; 600 nM with IgG1 RUBY v9 #15 (human) [3]. Also, the off-rate constant (koff) in the test with IgG2 mAb (human) [4] amounted to 0.1 s⁻¹; with IgG1 mAb (human) [2], 0.05 s⁻¹; with IgG1 LALA mAb (human), 0.1 s⁻¹; with IgG2 RUBY v9 #16 (human) [5], 0.2 s⁻¹; in [6], 0.08 s⁻¹; with IgG1 RUBY v9 #15 (human) [3], 0.08 s⁻¹. In addition, the kon in the test with IgG2 mAb (human) [4] turned out to be 200000 M⁻¹ s⁻¹; with IgG1 mAb (human) [2], 100000 M⁻¹ s⁻¹; with IgG1 LALA mAb (human), 200000 M⁻¹ s⁻¹; with IgG2 RUBY v9 #16 (human) [5] it was 200000 M⁻¹ s⁻¹; in test [6], 100000 M⁻¹ s⁻¹; with IgG1 RUBY v9 #15 (human) [3], 100000 M⁻¹ s⁻¹.

In the case of “recombinant mouse FcRn (from UniProt Q61559) (receptor)”, in test [6], the Kd turned out to be 70 nM, the koff came to 0.007 s⁻¹ and the kon turned out to be 100000 M⁻¹ s⁻¹.

B1: mFcγRIII (receptor)
chain: ALPKAVVKLDPPWIQVLKEDMVTLMCEGTHNPGNSSTQWFHNGRSIRSQVQASYTFKATVNDSGEYRCQMEQTRLSDPVDLGVISDWLLLQTPQRVFLEGETITLRCHSWRNKLLNRISFFHNEKSVRYHHYKSNFSIPKANHSHSGDYYCKGSLGSTQHQSKPVTITVQDPATTSSISLVWYHT
In the case of B1, the Kd turned out to be 10 nM with IgG2 mAb (human) [7], 20 nM in the test with IgG1 mAb (human) [8], 10 nM with IgG2 RUBY v9 #16 (human) [9] and 10 nM with IgG1 RUBY v9 #15 (human) [10]. Besides, the off-rate (koff) with IgG2 mAb (human) [7] was 0.008 s⁻¹; with IgG1 mAb (human) [8], 0.006 s⁻¹; with IgG2 RUBY v9 #16 (human) [9], 0.006 s⁻¹; with IgG1 RUBY v9 #15 (human) [10] it was 0.01 s⁻¹. Further, the on-rate constant (kon) was 700000 M⁻¹ s⁻¹ with IgG2 mAb (human) [7], 400000 M⁻¹ s⁻¹ with IgG1 mAb (human) [8], 600000 M⁻¹ s⁻¹ with IgG2 RUBY v9 #16 (human) [9] and 700000 M⁻¹ s⁻¹ with IgG1 RUBY v9 #15 (human) [10].

B2: mFcγRI (receptor)
chain: EVVNATKAVITLQPPWVSIFQKENVTLWCEGPHLPGDSSTQWFINGTAVQISTPSYSIPEASFQDSGEYRCQIGSSMPSDPVQLQIHNDWLLLQASRRVLTEGEPLALRCHGWKNKLVYNVVFYRNGKSFQFSSDSEVAILKTNLSHSGIYHCSGTGRHRYTSAGVSITVKELFTTPVLRASVSSPFPEGSLVTLNCETNLLLQRPGLQLHFSFYVGSKILEYRNTSSEYHIARAEREDAGFYWCEVATEDSSVLKRSPELELQVLGPQSSAP
In the test with IgG1 mAb (human) [8], B2 registered a Kd of 40 nM, a koff of 0.02 s⁻¹ and a kon of 600000 M⁻¹ s⁻¹. In the test with IgG1 RUBY v9 #15 (human) [10], this molecule had a Kd of 40 nM, a koff of 0.03 s⁻¹ and an association rate constant (kon) of 700000 M⁻¹ s⁻¹.
